Results taken from US20040213780, “Methods and compositions for treating polyglutamine expansion-associated disease” (published 2004).

Target: Sp1 (UniProt P08047 P08047:2-785)
Experiment: EMSA; 5 mM DTT, 1 ug/ml poly(dI-dC); binding reduced 20% by GST-huntingtin Q20 and 70% by Q51; competed by 50-fold unlabelled probe
Settings: tags: purified Sp1, Promega; label: labeled (autoradiography)
Protocol: Chem. 273:26218, 1998) except that 5 mM DTT and 1 μg/ml poly(dI-dC) were used. GST-huntingtin fusions (0.2 μg/ul) were a gift of E. Wanker and were purified as described (J. S. Steffan et al., Nature 413:739, 2001). An approximate 1:1 ratio of purified proteins was used. Coomassie blue staining and Western blotting were used to examine the purified proteins.
Binding of Sp1 to a labeled consensus Sp1 site is shown in lane 1, and competition with a 50-fold molar excess of unlabelled probe is shown in lane 2 (plus sign). Incubation of Sp1 in the presence of GST-huntingtin with 20 glutamines (Qs) led to a 20% reduction in Sp1 binding (lane 3), whereas huntingtin with 51 Qs inhibited Sp1 binding by 70% (lane 4). The Sp1/DNA complex was identified with anti-Sp1 and is indicated by an arrow in all panels. […] Primary striatal cells were transfected with wild-type (HttQ 17) or mutant (HttQ75) huntingtin. EMSA was performed with a labeled D2 promoter fragment containing a Sp1 binding site. […] In competition experiments, a 100-fold molar excess of double-stranded nonradioactive oligonucleotide was used (lanes 2 and 4). […] EMSA was performed with nuclear extracts isolated from presymptomatic grade 1 and grade 4 HD brain tissue as described above herein. […] Competition experiments were performed as in (FIG. 2B) (lane 2). […] EMSA was performed as in FIG. 2C. […]

Sequence of Sp1 (P08047 2-785, one chain of several): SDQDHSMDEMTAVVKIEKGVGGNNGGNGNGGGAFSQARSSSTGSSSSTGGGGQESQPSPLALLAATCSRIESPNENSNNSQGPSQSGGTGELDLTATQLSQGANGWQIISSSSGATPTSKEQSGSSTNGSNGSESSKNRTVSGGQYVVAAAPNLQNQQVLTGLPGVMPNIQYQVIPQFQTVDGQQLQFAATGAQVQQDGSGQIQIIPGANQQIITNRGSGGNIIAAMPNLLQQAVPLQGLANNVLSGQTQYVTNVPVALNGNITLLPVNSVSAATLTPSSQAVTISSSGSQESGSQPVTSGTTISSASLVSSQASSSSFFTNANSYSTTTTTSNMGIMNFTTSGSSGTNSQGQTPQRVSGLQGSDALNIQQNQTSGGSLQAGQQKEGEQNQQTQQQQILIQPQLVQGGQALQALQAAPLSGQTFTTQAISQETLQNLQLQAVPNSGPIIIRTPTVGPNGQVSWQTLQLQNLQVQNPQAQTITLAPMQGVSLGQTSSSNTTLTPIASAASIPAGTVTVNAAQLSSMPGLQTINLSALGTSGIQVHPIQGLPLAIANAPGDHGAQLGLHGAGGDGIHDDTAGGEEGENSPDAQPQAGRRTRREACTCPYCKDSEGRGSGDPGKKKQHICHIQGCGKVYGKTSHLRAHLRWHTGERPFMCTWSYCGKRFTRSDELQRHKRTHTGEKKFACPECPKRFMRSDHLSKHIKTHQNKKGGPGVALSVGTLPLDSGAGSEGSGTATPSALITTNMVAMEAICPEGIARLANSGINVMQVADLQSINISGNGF

B1: Sp1 consensus site probe (dsDNA)
DNA 1: ATTCGATCGGGGCGGGGCGAGC
DNA 2: GCTCGCCCCGCCCCGATCGAAT
- binding result: binds
